Source: patent US20240116985A1 (published 2024)
Starred links: 1 amine or outer side, 2 acyl side, 3 side chain; linkers in the order of their positions; H or OH if unused. Positions of bridges follow the written chain, without caps; N, C: chain ends. Non-standard residues stand in square brackets, D forms with d. Primed or numbered codes have the meaning given here. *: point of attachment. PyrS2″ = (S)-3-amino-1-((pent-4-en-1-yloxy)carbonyl)pyrrolidine-3-carboxylic acid (stapling residue), C=CCCCOC(=O)N1CC[C@@](N[*:1])(C(=O)[*:2])C1; B5(4) = 2,2-bis(4-pentenyl)glycine = 2-amino-2-(pent-4-en-1-yl)hept-6-enoic acid (stitching residue), C=CCCCC(CCCC=C)(N[*:1])C(=O)[*:2]; B5(5) = 2,2-bis(4-pentenyl)glycine, 2-amino-2-(pent-4-en-1-yl)hept-6-enoic acid (stitching residue), C=CCCCC(CCCC=C)(N[*:1])C(=O)[*:2]; PyrS2 = (S)-3-amino-1-((pent-4-en-1-yloxy)carbonyl)pyrrolidine-3-carboxylic acid, C=CCCCOC(=O)N1CC[C@@](N[*:1])(C(=O)[*:2])C1; RdN = (R)-4-(((allyloxy)carbonyl)(methyl)amino)-2-amino-2-methylbutanoic acid, C=CCOC(=O)N(C)CC[C@@](C)(N[*:1])C(=O)[*:2]; B5(3) = 2,2-bis(4-pentenyl)glycine (stitching residue), C=CCCCC(CCCC=C)(N[*:1])C(=O)[*:2]; B5 = 2-amino-2-(pent-4-en-1-yl)hept-6-enoic acid, C=CCCCC(CCCC=C)(N[*:1])C(=O)[*:2]; Phe(3-COOH) = N[C@@H](Cc1cccc(C(=O)O)c1)C(=O)O; S7 = C[C@@](CCCCCC=[*:3])(N[*:1])C(=O)[*:2]; Phe(3-OMe) = COc1cccc(C[C@H](N)C(=O)O)c1; Bta = N[C@@H](Cc1csc2ccccc12)C(=O)O; αAllylPro = C=CC[C@@]1(C(=O)O)CCCN1; tBuAla = CC(C)(C)C[C@H](N)C(=O)O; 3Thi = N[C@@H](Cc1ccsc1)C(=O)O; S8 = C=CCCCCCC[C@](C)(N)C(=O)O; Ms = CS(=O)(=O)*

Experiments:
[1] = target: T1, beta-catenin in DLD1 TCF/LEF luciferase reporter cells (Homo sapiens (Human), UniProt P35222 1-781); assay: cell-based or functional assay
T1 sequence: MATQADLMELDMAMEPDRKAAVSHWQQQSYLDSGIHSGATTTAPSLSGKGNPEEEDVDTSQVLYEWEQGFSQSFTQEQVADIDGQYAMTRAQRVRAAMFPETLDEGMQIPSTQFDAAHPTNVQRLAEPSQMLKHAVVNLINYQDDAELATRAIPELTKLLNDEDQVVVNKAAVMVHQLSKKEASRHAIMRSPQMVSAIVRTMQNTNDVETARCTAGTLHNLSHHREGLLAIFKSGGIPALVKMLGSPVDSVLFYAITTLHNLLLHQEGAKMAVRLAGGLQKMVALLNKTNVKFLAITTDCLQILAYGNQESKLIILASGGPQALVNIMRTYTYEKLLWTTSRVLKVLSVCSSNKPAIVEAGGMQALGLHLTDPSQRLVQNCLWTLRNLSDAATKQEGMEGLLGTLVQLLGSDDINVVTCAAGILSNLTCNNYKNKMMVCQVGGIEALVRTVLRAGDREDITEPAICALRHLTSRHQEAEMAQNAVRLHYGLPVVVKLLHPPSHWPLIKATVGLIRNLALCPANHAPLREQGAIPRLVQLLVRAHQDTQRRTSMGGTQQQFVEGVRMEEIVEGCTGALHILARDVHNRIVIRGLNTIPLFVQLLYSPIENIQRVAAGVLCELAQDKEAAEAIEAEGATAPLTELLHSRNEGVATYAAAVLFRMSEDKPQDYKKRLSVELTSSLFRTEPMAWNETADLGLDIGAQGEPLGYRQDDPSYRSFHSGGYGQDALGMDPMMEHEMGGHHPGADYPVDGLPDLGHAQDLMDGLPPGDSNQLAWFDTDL

B-cat-Halo [2] = target: T2, B-cat-Halo (Homo sapiens (Human), UniProt P35222 1-781); assay: cell-based or functional assay
T2 sequence: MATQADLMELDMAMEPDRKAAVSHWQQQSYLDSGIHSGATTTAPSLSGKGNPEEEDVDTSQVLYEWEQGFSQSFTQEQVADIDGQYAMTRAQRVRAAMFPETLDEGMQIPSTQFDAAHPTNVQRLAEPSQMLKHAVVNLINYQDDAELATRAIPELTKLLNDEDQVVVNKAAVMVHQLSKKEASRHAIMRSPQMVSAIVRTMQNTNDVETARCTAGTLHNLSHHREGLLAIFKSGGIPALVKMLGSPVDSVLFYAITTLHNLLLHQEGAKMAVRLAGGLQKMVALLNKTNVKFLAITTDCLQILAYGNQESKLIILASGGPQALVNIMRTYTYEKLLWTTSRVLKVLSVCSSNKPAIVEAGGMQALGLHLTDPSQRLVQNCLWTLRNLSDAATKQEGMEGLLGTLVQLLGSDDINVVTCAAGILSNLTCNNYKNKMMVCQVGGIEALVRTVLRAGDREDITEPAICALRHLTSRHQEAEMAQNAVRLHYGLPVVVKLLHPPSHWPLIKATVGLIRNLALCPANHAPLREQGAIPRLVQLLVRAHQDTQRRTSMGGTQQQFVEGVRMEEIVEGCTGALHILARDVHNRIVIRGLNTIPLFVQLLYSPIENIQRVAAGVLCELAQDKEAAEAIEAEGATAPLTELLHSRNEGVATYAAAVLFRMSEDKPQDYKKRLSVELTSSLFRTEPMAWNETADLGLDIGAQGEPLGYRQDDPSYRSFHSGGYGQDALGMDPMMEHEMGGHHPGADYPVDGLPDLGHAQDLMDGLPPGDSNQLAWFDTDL

[3] = target: T3, beta-catenin in DLD1 TCF/LEF luciferase reporter cells (UniProt P35222 1-781); assay: cell-based or functional assay
T3 sequence (looked up): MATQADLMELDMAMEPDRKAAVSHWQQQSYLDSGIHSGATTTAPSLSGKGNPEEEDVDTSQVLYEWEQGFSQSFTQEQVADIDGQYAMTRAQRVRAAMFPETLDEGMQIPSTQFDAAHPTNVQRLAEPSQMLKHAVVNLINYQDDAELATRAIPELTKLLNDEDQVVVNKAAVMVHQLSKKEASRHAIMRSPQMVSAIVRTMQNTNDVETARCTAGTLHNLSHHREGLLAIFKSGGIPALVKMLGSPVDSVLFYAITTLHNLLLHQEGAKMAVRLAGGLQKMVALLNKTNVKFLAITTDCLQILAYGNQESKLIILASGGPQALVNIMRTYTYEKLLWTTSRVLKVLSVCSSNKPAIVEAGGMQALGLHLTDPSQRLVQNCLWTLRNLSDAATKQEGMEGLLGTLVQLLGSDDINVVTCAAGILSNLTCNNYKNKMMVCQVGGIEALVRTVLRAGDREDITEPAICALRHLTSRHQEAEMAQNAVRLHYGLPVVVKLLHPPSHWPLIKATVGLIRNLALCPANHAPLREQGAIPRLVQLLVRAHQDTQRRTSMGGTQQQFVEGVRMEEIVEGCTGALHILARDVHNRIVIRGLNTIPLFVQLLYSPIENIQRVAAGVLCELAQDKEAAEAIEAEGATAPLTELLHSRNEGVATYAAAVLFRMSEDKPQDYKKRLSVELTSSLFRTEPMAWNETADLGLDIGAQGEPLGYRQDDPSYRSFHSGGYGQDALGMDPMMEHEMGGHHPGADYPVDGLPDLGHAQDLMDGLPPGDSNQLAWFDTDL

B-cat-Halo [4] = target: T4, B-cat-Halo (UniProt P35222 1-781); assay: cell-based or functional assay
T4 sequence (looked up): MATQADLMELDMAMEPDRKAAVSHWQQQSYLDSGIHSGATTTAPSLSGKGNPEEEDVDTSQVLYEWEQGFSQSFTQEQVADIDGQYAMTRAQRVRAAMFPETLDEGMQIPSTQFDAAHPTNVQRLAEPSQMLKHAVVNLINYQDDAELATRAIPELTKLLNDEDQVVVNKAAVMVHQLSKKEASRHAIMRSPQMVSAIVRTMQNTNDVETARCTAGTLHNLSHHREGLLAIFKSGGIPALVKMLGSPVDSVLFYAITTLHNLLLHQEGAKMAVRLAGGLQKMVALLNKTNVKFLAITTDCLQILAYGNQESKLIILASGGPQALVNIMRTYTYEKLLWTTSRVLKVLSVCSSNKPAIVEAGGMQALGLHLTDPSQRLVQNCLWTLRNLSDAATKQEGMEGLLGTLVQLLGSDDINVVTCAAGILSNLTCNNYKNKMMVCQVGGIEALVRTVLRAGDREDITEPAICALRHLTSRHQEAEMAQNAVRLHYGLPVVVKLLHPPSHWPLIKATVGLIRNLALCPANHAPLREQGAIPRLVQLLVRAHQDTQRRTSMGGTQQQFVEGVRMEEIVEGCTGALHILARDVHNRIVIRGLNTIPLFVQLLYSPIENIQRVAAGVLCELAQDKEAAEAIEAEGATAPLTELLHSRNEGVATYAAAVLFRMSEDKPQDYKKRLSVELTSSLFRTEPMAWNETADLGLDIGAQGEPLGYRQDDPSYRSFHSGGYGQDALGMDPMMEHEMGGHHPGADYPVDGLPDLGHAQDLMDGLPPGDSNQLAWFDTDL

[5] = target: T5, full-length beta-Catenin (Uniprot ID P35222) (Homo sapiens (Human), UniProt P35222 2-781); assay: fluorescence polarization competition; peptide titrated against 10 nM full-length beta-catenin with 10 nM 5FAM-TCF4(10-53) probe
T5 construct: also called bCat; B-Catenin
T5 sequence: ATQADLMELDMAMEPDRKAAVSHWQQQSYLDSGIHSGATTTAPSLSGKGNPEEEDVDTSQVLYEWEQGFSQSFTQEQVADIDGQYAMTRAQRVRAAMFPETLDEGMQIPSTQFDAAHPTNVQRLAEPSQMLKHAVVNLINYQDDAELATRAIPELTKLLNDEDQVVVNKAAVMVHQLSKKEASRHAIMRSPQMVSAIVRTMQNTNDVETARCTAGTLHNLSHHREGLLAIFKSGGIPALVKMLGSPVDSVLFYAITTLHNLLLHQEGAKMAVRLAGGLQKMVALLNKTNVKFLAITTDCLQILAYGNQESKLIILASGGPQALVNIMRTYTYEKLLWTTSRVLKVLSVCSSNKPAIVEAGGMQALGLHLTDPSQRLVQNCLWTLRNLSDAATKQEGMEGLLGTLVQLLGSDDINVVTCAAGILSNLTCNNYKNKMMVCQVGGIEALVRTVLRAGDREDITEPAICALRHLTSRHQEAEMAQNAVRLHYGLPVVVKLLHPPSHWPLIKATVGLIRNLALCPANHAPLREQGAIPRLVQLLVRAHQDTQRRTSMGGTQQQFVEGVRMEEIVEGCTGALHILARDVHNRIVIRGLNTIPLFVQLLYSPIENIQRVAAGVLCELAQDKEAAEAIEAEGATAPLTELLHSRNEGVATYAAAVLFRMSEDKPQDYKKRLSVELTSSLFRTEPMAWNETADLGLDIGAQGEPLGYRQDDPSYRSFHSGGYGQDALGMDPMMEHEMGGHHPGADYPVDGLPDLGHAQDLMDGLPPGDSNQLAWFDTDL
Experimental: (§1) The plate was incubated protected from light for 60 minutes at 20° C. prior to read. Reads were performed on a CLARIOstar plate reader (BMG Labtech) in duplicate, and data were fitted to a 1:1 binding model with hill slope using an in-house script. All provided concentrations are final concentrations.

[6] = target: T6, full-length beta-Catenin (Uniprot ID P35222) (Homo sapiens (Human), UniProt P35222 1-781); assay: fluorescence polarization competition; peptide titrated against full-length beta-catenin + 5FAM-TCF4(10-53)
T6 construct: also called bCat; B-Catenin
T6 sequence: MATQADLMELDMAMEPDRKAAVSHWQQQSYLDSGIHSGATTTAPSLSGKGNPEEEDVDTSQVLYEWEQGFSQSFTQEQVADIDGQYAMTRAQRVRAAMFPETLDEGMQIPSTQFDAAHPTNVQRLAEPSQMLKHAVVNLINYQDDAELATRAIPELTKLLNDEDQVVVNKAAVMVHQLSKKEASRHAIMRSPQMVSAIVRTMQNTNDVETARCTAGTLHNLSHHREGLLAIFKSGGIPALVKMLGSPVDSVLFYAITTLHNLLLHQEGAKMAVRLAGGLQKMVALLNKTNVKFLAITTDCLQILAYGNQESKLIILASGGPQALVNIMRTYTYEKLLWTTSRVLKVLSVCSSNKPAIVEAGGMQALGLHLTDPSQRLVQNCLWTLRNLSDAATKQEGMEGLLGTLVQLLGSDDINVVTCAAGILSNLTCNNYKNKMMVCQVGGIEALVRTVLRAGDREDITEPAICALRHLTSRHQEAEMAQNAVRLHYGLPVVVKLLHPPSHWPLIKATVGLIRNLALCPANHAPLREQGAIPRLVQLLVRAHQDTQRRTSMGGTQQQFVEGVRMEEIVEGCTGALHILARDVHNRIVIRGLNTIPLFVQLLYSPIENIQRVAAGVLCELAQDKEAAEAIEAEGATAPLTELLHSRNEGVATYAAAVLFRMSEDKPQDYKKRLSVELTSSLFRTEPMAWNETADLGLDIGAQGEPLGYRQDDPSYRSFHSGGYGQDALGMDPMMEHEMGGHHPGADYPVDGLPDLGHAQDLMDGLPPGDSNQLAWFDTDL
Experimental: as §1

For Ac-[αAllylPro]D[tBuAla][B5(3)]D[Phe(3-COOH)]AAFL[PyrS2″][3Thi][Bta]N-NH2 (staple 1-4, 4-11) [I-2043], the “DLD1 4% Abs IC50” value [1] was 1000 nM and the “NanoBRET Abs IC50” value (B-cat-Halo [2]) was 2800 nM.

In the case of Ac-[αAllylPro]D[tBuAla][B5(4)]D[Phe(3-COOH)]AAFL[PyrS2][3Thi][Bta]NLLLLL-NH2 (staple 1-4, 4-11; also: later eluting staple isomer) [I-2280], the “DLD1 4% Abs IC50” value [3] is reported as greater than 20000 nM and the “NanoBRET Abs IC50” value (B-cat-Halo [4]) is reported as greater than 20000 nM.

Ac-ADI[RdN]DEAAFQ[S7]FWH-NH2 (staple 4-11) [I-66: Ac-Ala-Asp-Ile-RdN-Asp-Glu-Ala-Ala-Phe-Gln-S7-Phe-Trp-His-NH2 (stapled peptide)] was tested, and the IC50 [5] was 1090 nM.

B1: I-724 (peptide)
peptide: Ac-[αAllylPro]DI[B5]DEAA[Phe(3-OMe)]Q[S8]F[Bta]Q-NH2
modifications: staple 1-4, 4-11
notes: also called Ac-PL3-Asp-Ile-B5-Asp-Glu-Ala-Ala-3OMeF-Gln-S8-Phe-BztA-Gln-NH2
For B1, the IC50 [6] was 114 nM.

B2: I-710 (peptide)
peptide: Ms-[αAllylPro]DI[B5(5)]DEAAFQ[S8]F[Bta]Q-NH2
modifications: staple 1-4, 4-11
notes: separate staple-isomer composition (earlier eluting HPLC peak); also called MeSO2-PL3-Asp-Ile-B5-Asp-Glu-Ala-Ala-Phe-Gln-S8-Phe-BztA-Gln-NH2
With B2 the IC50 [6] was 73 nM.
